What all share (assay): flow cytometry on cells
The target of assay [1] is T1, C-terminally truncated wild-type Ste2p (Saccharomyces cerevisiae, UniProt D6VTK4 1-303).
T1 sequence (looked up): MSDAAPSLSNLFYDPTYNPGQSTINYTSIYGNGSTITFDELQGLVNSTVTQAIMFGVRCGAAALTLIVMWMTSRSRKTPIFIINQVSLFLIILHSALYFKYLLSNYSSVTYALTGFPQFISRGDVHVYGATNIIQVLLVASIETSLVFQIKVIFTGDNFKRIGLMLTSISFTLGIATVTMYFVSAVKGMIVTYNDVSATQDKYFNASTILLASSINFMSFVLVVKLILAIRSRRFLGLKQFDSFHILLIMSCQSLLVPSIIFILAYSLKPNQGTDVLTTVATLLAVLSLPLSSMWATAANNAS

Assay [2] deals with T2, C-terminally truncated Ste2p F38Y (Saccharomyces cerevisiae, UniProt D6VTK4 1-303, F38Y).
T2 sequence (looked up): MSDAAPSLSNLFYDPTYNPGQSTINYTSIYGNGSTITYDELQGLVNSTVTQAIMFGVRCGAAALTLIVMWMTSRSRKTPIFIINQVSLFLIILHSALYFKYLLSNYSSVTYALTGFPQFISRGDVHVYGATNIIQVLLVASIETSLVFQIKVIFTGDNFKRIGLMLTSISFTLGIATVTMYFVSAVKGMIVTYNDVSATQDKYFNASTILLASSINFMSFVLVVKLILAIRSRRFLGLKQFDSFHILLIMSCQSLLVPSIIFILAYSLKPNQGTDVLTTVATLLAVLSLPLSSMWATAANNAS

Assay [3] concerns the target T3, C-terminally truncated Ste2p H94Y (Saccharomyces cerevisiae, UniProt D6VTK4 1-303, H94Y).
T3 sequence (looked up): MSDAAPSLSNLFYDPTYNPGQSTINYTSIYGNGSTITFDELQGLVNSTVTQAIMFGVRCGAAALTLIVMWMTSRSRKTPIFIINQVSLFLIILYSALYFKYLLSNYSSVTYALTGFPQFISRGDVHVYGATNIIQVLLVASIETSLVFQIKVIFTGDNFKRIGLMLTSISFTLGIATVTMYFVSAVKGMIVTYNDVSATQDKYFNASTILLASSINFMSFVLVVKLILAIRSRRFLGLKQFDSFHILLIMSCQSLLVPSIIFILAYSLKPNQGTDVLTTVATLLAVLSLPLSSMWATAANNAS

Assay [4] addresses T4, C-terminally truncated Ste2p S95Y (Saccharomyces cerevisiae, UniProt D6VTK4 1-303, S95Y).
T4 sequence (looked up): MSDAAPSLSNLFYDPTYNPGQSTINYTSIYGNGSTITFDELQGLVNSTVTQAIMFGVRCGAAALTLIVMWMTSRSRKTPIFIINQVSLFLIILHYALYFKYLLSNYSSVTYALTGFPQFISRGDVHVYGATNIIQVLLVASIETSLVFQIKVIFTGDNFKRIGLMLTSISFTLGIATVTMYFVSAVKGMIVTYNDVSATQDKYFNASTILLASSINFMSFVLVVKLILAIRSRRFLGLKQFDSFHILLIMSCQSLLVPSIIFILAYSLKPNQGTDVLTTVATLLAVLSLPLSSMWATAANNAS

The target of assay [5] is T5, C-terminally truncated Ste2p S104Y (Saccharomyces cerevisiae, UniProt D6VTK4 1-303, S104Y).
T5 sequence (looked up): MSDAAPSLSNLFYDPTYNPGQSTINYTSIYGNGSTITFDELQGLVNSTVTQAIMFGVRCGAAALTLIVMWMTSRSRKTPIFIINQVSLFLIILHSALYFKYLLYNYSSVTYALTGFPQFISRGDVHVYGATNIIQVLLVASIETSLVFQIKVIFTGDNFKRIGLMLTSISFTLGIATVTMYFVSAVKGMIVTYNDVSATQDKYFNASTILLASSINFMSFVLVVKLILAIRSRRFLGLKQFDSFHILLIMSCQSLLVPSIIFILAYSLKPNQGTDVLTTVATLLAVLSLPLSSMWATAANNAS

A further assay addresses T6, full-length Ste2p S95Y (Saccharomyces cerevisiae, UniProt D6VTK4 1-431, S95Y).
T6 sequence (looked up): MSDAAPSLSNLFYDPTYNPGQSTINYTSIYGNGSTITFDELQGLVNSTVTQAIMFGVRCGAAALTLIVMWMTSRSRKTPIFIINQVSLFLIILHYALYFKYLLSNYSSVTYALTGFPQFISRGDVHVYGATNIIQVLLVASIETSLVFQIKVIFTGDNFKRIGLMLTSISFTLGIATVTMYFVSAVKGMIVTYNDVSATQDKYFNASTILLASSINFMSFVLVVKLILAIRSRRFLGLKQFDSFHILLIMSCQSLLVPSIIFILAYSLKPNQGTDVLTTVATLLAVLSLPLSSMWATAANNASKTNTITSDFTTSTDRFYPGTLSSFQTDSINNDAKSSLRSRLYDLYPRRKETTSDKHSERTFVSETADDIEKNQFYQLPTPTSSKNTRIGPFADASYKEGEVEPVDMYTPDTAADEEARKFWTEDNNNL

This note sets out measurements from PMC4405178 (Biochemistry, 2015).

B1: [K^7(NBD),Nle^12] α-factor (peptide)
chain: WHWLQLKPGQPMY
modifications: NBD (7-nitrobenz-2-oxa-1,3-diazol-4-yl) conjugated to the lysine at position 7; norleucine at position 12 in place of methionine
Take B1: the dissociation constant Kd is 19 ± 3.8 nM in assay [1]; 59 ± 11 nM in assay [2]; 47 ± 8.1 nM in assay [3]; 8.1 ± 7.5 nM in assay [4]; 12 ± 3.4 nM in assay [5]; 2.1 ± 1.5 nM with full-length Ste2p S95Y.

For orientation: Kd means a measure of binding affinity in units of concentration.
